In this test the target is microtubules assembled from bovine brain tubulin (bovine) (UniProt Q6B856). Nature of the test: co-sedimentation; 0.5 μM 4R-tau with increasing taxol-stabilized microtubules, 30 min at RT, BRB80-K (BRB80 + 50 mM KCl); 230,000 x g 15 min; tau in the pellet by densitometry of Coomassie gels; hyperbolic fit; apparent Kd.

In the case of “4R-tau (1N4R-tau), recombinant human tau containing four microtubule-binding sites (from UniProt P10636-7 1-412) (natural protein)”, the Kd stood at 280 nM.

(Values after paper PMC4421749.)
